According to publication PMC6978369, “Peptidoglycan reshaping by a noncanonical peptidase for helical cell shape in Campylobacter jejuni” (Nature Communications, 2020):

Legend:
[1] = molecular target: Pgp3 H247A mutant, residues 21-273 (C. jejuni (strain ATCC 33560)); experiment: crystal structure; H247A protein (10 mg/mL, 20 mM Tris-HCl pH 8.0, 200 mM NaCl) mixed with peptide in a 1:10 molar ratio, 277 K for 1 h; crystals grown at 296 K in 1.8 M ammonium citrate tribasic pH 7.0
Pgp3 = molecular target: T1, Pgp3 (Campylobacter jejuni, UniProt A0AAD2UT50); experiment: LC/MS turnover assay; type: biochemical; settings: D,D-endopeptidase; 50 mM Tris pH 7.5, 23 °C
T1 construct: gene A8118_01115; residues 21-273 (Glu21 to Gln273 in Methods, Asn273 in Results) without N-terminal 20 residues, of 274 aa; expressed in E. coli Rosetta2 (DE3); Zn enzyme
T1 sequence (A0AAD2UT50 entry or part of it): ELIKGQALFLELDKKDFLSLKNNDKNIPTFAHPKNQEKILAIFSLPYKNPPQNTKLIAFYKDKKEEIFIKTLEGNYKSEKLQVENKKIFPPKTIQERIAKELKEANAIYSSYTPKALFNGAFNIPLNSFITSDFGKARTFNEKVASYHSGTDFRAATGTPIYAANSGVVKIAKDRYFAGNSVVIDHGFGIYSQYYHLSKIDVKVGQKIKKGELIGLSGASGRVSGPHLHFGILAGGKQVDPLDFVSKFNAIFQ

Compound | stoichiometry N [1] | LC/MS turnover assay (Pgp3)
pentapeptide 1, Ac-L-Ala1-γ-D-Glu2-mDAP3-D-Ala4-D-Ala5 | 1 | –
crosslinked muramyl tetra-tri peptide 2, NAM-L-Ala1-γ-D-Glu2-mDAP3-D-Ala4-mDAP3-γ-D-Glu2-Ala1-NAM | 1 | –
CO[C@@H]1O[C@H](CO)[C@@H](O)[C@H](O[C@H](C)C(=O)N[C@@H](C)C(=O)N[C@H](CCC(=O)N[C@@H](CCC[C@@H](NC(=O)[C@@H](C)NC(=O)[C@H](CCC[C@@H](N)C(=O)O)NC(=O)CC[C@@H](NC(=O)[C@H](C)NC(=O)[C@@H](C)O[C@H]2[C@H](O)[C@@H](CO)O[C@@H](OC)[C@@H]2NC(C)=O)C(=O)O)C(=O)O)C(=O)O)C(=O)O)[C@H]1NC(C)=O [compound 2, crosslinked muramyl tetra-tri peptide] | – | Pgp3 exhibited both D,D-carboxypeptidase and D,D-endopeptidase activities based on LC/MS analysis
